# Assay results: US20240254258A1 (TRELLIS BIOSCIENCE, published 2024)
# Molecular target: T1, ALK Extracellullar Domain (ECD), generated by Trellis in mammalian cells (human, UniProt Q9UM73 19-1038)
# T1 construct: extracellular domain; Recombinant ECD made in-house in mammalian cells; also called ALK ECD; extracellular domain of ALK
# Experiment: adsorption ELISA on ALK ECD, serial dilutions, estimate of binding affinity
# Procedure: Purified mAbs were tested in adsorption ELISA using ALK Extracellullar Domain (ECD), generated by Trellis in mammalian cells. TRL10001 is of particular interest based on its sub-nM affinity to the target.
# T1 sequence (Q9UM73 19-1038): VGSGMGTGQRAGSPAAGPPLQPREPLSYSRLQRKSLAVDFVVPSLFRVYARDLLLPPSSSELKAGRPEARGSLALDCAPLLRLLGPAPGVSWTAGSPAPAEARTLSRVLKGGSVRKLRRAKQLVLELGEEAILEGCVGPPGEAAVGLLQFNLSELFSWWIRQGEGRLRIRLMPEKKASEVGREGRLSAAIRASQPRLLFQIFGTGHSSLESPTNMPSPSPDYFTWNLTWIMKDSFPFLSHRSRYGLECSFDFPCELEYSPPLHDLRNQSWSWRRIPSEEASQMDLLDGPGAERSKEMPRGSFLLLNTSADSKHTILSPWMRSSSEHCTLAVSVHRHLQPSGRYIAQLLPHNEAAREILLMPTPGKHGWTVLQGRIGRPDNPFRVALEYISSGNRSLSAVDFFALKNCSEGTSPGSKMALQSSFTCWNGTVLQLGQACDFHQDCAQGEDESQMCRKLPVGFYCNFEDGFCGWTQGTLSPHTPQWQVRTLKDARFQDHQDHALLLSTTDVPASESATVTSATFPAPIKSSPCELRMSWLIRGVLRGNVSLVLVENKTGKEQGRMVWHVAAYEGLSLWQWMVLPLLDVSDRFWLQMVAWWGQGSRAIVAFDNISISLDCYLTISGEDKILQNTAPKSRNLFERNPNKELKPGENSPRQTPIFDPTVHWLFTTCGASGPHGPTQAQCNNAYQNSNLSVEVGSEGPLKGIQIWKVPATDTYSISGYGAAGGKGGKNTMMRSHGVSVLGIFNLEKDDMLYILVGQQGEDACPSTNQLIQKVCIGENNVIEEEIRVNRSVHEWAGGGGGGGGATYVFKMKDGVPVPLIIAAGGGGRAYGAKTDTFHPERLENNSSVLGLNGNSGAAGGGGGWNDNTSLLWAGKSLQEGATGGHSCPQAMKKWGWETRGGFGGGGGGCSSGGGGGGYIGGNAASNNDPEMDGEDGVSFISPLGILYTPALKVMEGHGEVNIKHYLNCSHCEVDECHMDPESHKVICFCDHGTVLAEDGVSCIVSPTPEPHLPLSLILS
row,Binder,Affinity [nM]
1,"TRL10014 (antibody, IgG1, V domains shown, Native human mAb from donor 210; also called TRL100014) VH: QVQLVESGGGLVKPGGSLRLSCTASGFSFSDSYMNWIRQAPGKGLEWLAYISTSATYTYSADSVKGRFTISRDNAKNSLYLQMNSLRDEDTAVYYCAREGLFYDGLYGMDVWGQGTTVIVSS VL: DILMTQSPLSLPVTPGEPASISCRSSQSLLHSNGYNYLNWYLQKPGQSPQLLIYLGSNRASGVPDRFSGSGSGTDFTLKISSVEAEDVGVYYCMQALHTPRTFGQGTKVEIKR",75
2,"TRL10051 (antibody, IgG1, V domains shown, Native human mAb from donor 223) VH: QVQLVESGGGLVQPGGSLRLSCAASGFTFSSYVMSWVRQAPGKGLEWVSSIRVSGDRAHYADSVKGRFTVSRDDSKNTVYLQMNSLRVEDTAVYYCVKDQAERLLRAVTTHFDYWGQGALVTVSS VL: DIVMTQSPLSSPVTLGQPASISCRSSQSLVHSDGNTYLSWLQQRPGQPPRLLIYKVSRRFSGVPDRFSGSGAGTDFTLKISRVEAEDVGIYYCMQASQFPRTFGQGTKVEIKR",1
3,"TRL10005 (antibody, IgG1, V domains shown, Native human mAb from donor 236) VH: QVQLVESGGGLVKPGGSLRLSCAASGFTFNDHYMTWIRQAPGKGLEWISYISSSGGTIFYAESVKGRFTISRDNANNILFLQMNSLRAEDTAVYYCARGALRFLEWSHLGSWGQGTLVTVSS VL: DIVLTQSPGTLSLSPGERATLSCRASQRVSSSYLAWFQQKPGQAPRLLIYGASTRATGIPDRFSGSGSGTDFTLTISRLEPEDFAVYYCQQYGMSSWTFGQGTKVEIKR",1
